The values below come from paper PMC10792529 (Proteins, 2023).

To fix the notation:
T1: E. coli outer-membrane transporter FhuA (E. coli, UniProt P06971 34-747)
T1 sequence (looked up): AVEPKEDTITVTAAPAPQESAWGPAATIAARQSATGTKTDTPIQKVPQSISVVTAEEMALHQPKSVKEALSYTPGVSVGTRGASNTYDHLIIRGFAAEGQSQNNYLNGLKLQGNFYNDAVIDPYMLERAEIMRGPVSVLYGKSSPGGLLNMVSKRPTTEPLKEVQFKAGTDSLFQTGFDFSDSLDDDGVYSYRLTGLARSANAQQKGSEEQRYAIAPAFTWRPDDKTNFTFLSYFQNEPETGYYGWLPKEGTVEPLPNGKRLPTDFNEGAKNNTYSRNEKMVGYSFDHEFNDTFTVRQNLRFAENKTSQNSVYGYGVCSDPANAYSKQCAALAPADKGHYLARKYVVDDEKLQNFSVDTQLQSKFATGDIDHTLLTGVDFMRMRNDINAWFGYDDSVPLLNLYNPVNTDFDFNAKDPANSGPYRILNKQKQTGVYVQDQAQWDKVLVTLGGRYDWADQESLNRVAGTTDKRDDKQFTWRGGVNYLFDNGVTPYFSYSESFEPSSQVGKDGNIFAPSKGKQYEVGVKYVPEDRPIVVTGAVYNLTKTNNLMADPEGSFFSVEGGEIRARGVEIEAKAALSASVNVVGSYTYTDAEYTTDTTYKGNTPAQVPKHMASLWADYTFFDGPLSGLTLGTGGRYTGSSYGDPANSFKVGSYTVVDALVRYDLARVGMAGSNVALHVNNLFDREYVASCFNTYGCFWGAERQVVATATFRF

B1: human SUN1 SUN domain (domain or fragment)
chain: GITEAQARAIVNSALKLYSQDKTGMVDFALESGGGSILSTRCSETYETKTALMSLFGIPLWYFSQSPRVVIQPDIYPGNCWAFKGSQGYLVVRLSMMIHPAAFTLEHIPKTLSPTGNISSAPKDFAVYGLENEYQEEGQLLGQFTYDQDGESLQMFQALKRPDDTAFQIVELRIFSNWGHPEYTCLYRFRVHGEPVK
B2: Bacteriophage T5 Receptor Binding Protein RBPpb5 (natural protein)
chain: MSFFAGKLNNKSILSLRRGSGGDTNQHINPDSQTIFHSDMSHVIITETHSTGLRLDQGAGDYYWSEMPSRVTQLHNNDPNRVVLTEIEFSDGSRHMLSGMSMGVGAKAYGIINPQIMSQGGLKTQITASADLSLDVGYFNTGTSGTIPQKLRDGTGCQHMFGAFSGRRGFASSAMYLGGAALYKSAWSGSGYVVADAGTLTIPSDYVRHPGARNFGFNAIYVRGRSCNRVLYGMEGPNYTTGGAVQGASSSGALNFTYNPSNPESPKYSVGFARADPTNYAYWESMGDPNDSANGPIGIYSEHLGIYPSKITWYVTNLVYNGSGYNIDGGLFNGNDIKLSPREFIIKGVNVNNTSWKFINFIEKNFNVGNRADFRDVGCNLSKDSPSTGISGIATFGLPTTESNNAPSIKGGNVGGLHANVVSIYNFLPSASWYVSSNPPKIGNNYGDVWSENLLPLRLLGGSGSTILSGNIVFQGNGSVHVGTVGLDLNSSRNGAIVCTMEFIDDTWLSAGGIGCFNPTEMLSQGAEYGDSRFRIGGNTINKKLHQILSLPAGEYVPFFTIKGTVVNACKLQAAAYNPTPYWVSGLPGSVGQTGYYTLTYYMRNDGNNNISIWLDSSMSNIIGMKACLPNIKLIIQRLT
B3: nanobody 8C (VHH)
VHH: EVQLEESGGGLVQAGGSLTLSCAASGFTFDDYAMGWYRQAPGKERVGVSCISRTDGYTYYLDSVKGRFTISTDHAKHTVYLQMNNLKPDDTGLYYCAADADPEYGSRCPDPYYGMDYWGKGILVTVSS

Several values for one entry are separate records, joined by “and”; a condition that tells them apart may be missing. Equal entries are not always repeated.

The target of series [1] is HucM, scaffold subunit of the [NiFe]-hydrogenase Huc (Mycobacterium smegmatis). Kind of series: cryo-EM structure; 833 kDa Huc complex: 8 HucL, 8 HucS, 4 HucM.
Series [2] deals with HucSL heterodimer (Mycobacterium smegmatis). Described as above.
Series [3] has as its target Mycobacterium smegmatis MceG (Mycobacterium smegmatis). Put plainly: cryo-EM structure.
Series [4] addresses cytosolic domain of the major export gate protein YscV (Yersinia enterocolitica). Put plainly: crystal structure; 9:9:9 YscV:YscX:YscY complex, 4.1 Å, 18 copies of the 1:1:1 complex in the asymmetric unit.
In series [5] the target is nudivirus polyhedrin (occlusion body protein of Tipula oleracea nudivirus) (Tipula oleracea nudivirus). Kind of series: crystal structure.
The target of series [6] is tyrosine O-methyltransferase MfnG from Streptomyces drozdowiczii (Streptomyces drozdowiczii). Kind of series: crystal structure; MfnG with SAH and soaked L-Tyr; five crystal forms with one to four dimers per asymmetric unit.
Series [7] deals with the molecule itself. Put plainly: crystal structure; SUN1-KASH6 complex, nine SUN domains and six KASH peptides.
Series [8] concerns the target T1, E. coli outer-membrane transporter FhuA. Put plainly: cryo-EM structure. To be noted: both partners purified.
Series [9] deals with phosphodiesterase domain of 2',3'-cyclic nucleotide 3'-phosphodiesterase (CNPase) (Mus musculus (assumed; species not …, UniProt P16330). Put plainly: crystal structure; nanobodies co-crystallized with the phosphodiesterase domain of CNPase. As to conditions: both partners purified.
In the series “human SUN1 SUN domain” the target is B1. Put plainly: crystal structure; SUN1-KASH6 complex, nine SUN domains and six KASH peptides. To be noted: both partners purified.

phosphodiesterase domain of 2',3'-cyclic nucleotide 3'-phosphodiesterase (CNPase) (Mus musculus, sequence (P16330 whole entry, looked up, the tested form may be a part): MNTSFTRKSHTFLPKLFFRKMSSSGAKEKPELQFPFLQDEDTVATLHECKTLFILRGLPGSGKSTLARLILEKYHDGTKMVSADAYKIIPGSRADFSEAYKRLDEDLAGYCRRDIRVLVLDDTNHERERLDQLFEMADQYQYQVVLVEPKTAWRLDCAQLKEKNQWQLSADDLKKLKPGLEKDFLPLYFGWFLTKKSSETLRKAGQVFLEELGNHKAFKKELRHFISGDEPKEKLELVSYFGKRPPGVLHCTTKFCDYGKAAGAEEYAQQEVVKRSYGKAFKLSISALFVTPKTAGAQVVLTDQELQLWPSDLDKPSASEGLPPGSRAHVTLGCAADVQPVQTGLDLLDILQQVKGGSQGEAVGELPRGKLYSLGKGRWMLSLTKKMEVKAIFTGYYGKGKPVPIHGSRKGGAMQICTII

Take “HucM, scaffold subunit of the [NiFe]-hydrogenase Huc (natural protein)”: in [1], the stoichiometry N worked out at 4. Take HucSL heterodimer (complex): the stoichiometry N in series [2] came out at 2.

Mycobacterium smegmatis MceG (enzyme) showed a stoichiometry N in [3] of 2.

Consider YscX:YscY heterodimer (complex), for which, in [4], the stoichiometry N (YscX:YscY complexes per YscV nonamer) worked out at 9. With “cytosolic domain of the major export gate protein YscV (domain or fragment)”, in series [4], the stoichiometry N amounted to 9. Turning to “nudivirus polyhedrin (occlusion body protein of Tipula oleracea nudivirus) (natural protein)”, the stoichiometry N in series [5] stood at 2. With “tyrosine O-methyltransferase MfnG from Streptomyces drozdowiczii (enzyme)”, the stoichiometry N in series [6] was 2.

As to B1, the “stoichiometry N” value in [7] is 3 and 9. As to B2, the binding result in [8] was “binds”. B3: the binding result in series [9] is listed as “binds”. As to TGQLFQKSVDAAPTQQEDSWTSLEHILWPFTRLRHNGPPPV [KASH6 peptide, the KASH domain of JAW1/LRMP], in the series with human SUN1 SUN domain, the “stoichiometry N” value is 2 KASH6 peptides per SUN1 trimer.
